Data on ten molecules can be found in patent US20220098306A1 (published 2022).

Usually Kd stands for a measure of binding affinity in units of concentration.

Where a chain is given by its changes, count along the chain named. Where two headings read alike, the source gives them in different places.

The target of one assay is T1, huB7H3 (V1C1).
T1 chain: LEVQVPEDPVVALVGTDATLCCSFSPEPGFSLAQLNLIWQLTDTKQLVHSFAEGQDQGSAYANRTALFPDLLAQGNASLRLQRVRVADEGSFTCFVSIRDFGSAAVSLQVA
Nature of the assay: Octet. A general note: In BLI a coated tip is dipped into the sample, and binding shifts an interference pattern.

The target of the next assay is T2, huB7H3 (V2C2).
T2 chain: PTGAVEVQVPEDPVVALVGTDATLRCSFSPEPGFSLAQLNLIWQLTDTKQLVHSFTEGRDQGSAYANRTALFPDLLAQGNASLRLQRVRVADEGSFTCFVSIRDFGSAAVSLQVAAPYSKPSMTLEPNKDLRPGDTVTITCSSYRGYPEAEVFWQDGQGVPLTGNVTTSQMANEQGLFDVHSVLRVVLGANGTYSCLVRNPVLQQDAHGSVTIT
The experiment in a line: Octet.

Assay [1] has as its target T3, mouse Fc fusion of B7H3, full extracellular V1C1-V2C2 domain (human, UniProt Q5ZPR3 29-466).
T3 chain: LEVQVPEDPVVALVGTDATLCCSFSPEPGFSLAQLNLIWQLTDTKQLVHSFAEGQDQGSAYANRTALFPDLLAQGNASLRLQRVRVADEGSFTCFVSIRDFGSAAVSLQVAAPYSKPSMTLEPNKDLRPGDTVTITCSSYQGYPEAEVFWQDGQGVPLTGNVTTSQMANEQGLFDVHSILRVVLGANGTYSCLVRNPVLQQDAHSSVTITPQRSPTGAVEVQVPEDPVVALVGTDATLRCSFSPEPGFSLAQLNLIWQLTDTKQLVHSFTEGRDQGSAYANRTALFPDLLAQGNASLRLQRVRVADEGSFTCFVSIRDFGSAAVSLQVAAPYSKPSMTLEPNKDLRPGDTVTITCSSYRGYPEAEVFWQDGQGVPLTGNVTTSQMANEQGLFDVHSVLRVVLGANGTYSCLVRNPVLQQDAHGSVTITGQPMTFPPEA
The experiment in a line: Octet.

In assay [2] the target is T4, CD28-Fc-His protein (human, UniProt P10747 19-152). The experiment in a line: Octet; 1:1 Langmuir.
The target in assay [3] is T4, CD28-Fc-His protein. The experiment in a line: Octet; Steady State.
For assay [4], the target named is T5, CD28 (antigen of the affinity determinations) (human, UniProt P10747 19-152). Nature of the assay: -; scFv VHVL, 1+1 Fab-scFv-Fc.
In assay [5] the target is T5, CD28 (antigen of the affinity …). Nature of the assay: Octet; avid.
The target is the same in assay [6]. The experiment in a line: -; Fab, 2+1 CLC.
Assay [7] has the same target.
In assay [8] the target is T6, B7H3 (antigen of the affinity statements) (human, UniProt Q5ZPR3 29-466).
T6 chain: T3 chain
Nature of the assay: -; monovalent KD.

B1: XENP34728 (6A1) (antibody, V domains shown)
VH: EVQLLESGGGLVQPGGSLRLSCAASGFTFSNYYMAWVRQAPGKGLEWVSSISTGGGSTYYRDSVKGRFTISRDNSKSTLYLQMNSLRAEDTAVYYCTTDLSAIAATPFAYWGQGTLVTVSS
VL: DIQMTQSPSSLSASVGDRVTITCRASQNIYTSLAWYQQKPGKAPKLLIYNAHSLQTGIPSRFSGSGSGADFTLTISSLQPEDFATYFCQQYYSGLTFGSGTKLEIKR
For the molecule B1, the equilibrium dissociation constant (Kd) in the assay with huB7H3 (V1C1) is 4.4 nM; with huB7H3 (V2C2), 6.4 nM; in assay [1] it was 4.3 nM.

B2: human B7H3 (V1C1-V2C2) (ligand)
chain: T3 chain
Molecule B2 came in with a Kd with 4F12_H2_L1.1 of less than 0.1 nM.

B3: XENP34389 (bispecific antibody)
heavy 1: EVQLLESGGGLVQPGGSLRLSCAASGFTFSNYYMAWVRQAPGKGLEWVSSISTGGGSTYYRDSVKGRFTISRDNSKSTLYLQMNSLRAEDTAVYYCTTDLSAIAATPFAYWGQGTLVTVSSASTKGPSVFPLAPSSKSTSGGTAALGCLVKDYFPEPVTVSWNSGALTSGVHTFPAVLQSSGLYSLSSVVTVPSSSLGTQTYICNVNHKPSDTKVDKKVEPKSCDKTHTCPPCPAPPVAGPSVFLFPPKPKDTLMISRTPEVTCVVVDVKHEDPEVKFNWYVDGVEVHNAKTKPREEEYNSTYRVVSVLTVLHQDWLNGKEYKCKVSNKALPAPIEKTISKAKGQPREPQVYTLPPSREEMTKNQVSLTCDVSGFYPSDIAVEWESDGQPENNYKTTPPVLDSDGSFFLYSKLTVDKSRWEQGDVFSCSVMHEALHNHYTQKSLSLSPGK
heavy 2: not shown
light: DIQMTQSPSSLSASVGDRVTITCRASQNIYTSLAWYQQKPGKAPKLLIYNAHSLQTGIPSRFSGSGSGADFTLTISSLQPEDFATYFCQQYYSGLTFGSGTKLEIKRTVAAPSVFIFPPSDEQLKSGTASVVCLLNNFYPREAKVQWKVDNALQSGNSQESVTEQDSKDSTYSLSSTLTLSKADYEKHKVYACEVTHQGLSSPVTKSFNRGEC
Regarding B3, the dissociation constant (Kd) was 790 nM with CD28-Fc-His protein [2] and 560 nM with CD28-Fc-His protein [3].

B4: H1_L1.71 (antibody, V domains shown)
VH: EVQLLESGGGLVQPGGSLRLSCAASGFTFSSYAMSWVRQAPGKGLEWVSTISGSGDSTYYADSVKGRFTISRDNSKNTLYLQMNSLRAEDTAVYYCAKSGPGLRQVGFDYWGQGTLVTVSS
VL: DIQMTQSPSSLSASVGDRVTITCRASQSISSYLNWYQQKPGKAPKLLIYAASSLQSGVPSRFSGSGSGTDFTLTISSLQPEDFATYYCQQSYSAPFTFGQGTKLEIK
In turn, B4 came in with a dissociation constant (Kd) in assay [4] of 180 nM.

B5: XENP28428 (antibody, V domains shown)
VH: B4 VH
VL: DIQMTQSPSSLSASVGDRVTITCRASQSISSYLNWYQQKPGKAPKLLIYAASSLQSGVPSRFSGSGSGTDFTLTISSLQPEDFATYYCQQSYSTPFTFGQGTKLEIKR
In assay [5], B5 registered an equilibrium dissociation constant (Kd) of 14.5 nM.

B6: H1.1_L1.71 (antibody, V domains shown)
VH: B4 VH with A33Y
VL: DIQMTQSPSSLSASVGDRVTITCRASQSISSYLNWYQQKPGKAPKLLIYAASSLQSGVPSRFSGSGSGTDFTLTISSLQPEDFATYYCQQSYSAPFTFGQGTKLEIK
The molecule B6 yielded a Kd in [4] of 91.6 nM.

B7: XENP34717 (bispecific antibody)
heavy 1: EVQLLESGGGLVQPGGSLRLSCAASGFTFSSYYMSWVRQAPGKGLEWVSTISESGDSTYYADSVKGRFTISRDNSKNTLYLQMNSLRAEDTAVYYCAKSGPGLRQVGFDYWGQGTLVTVSSASTKGPSVFPLAPSSKSTSGGTAALGCLVKDYFPEPVTVSWNSGALTSGVHTFPAVLQSSGLYSLSSVVTVPSSSLGTQTYICNVNHKPSDTKVDKKVEPKSCDKTHTCPPCPAPPVAGPSVFLFPPKPKDTLMISRTPEVTCVVVDVKHEDPEVKFNWYVDGVEVHNAKTKPREEEYNSTYRVVSVLTVLHQDWLNGKEYKCKVSNKALPAPIEKTISKAKGQPREPQVYTLPPSREEMTKNQVSLTCDVSGFYPSDIAVEWESDGQPENNYKTTPPVLDSDGSFFLYSKLTVDKSRWEQGDVFSCSVMHEALHNHYTQKSLSLSPGK
heavy 2: QVQLVQSGAEVKKPGASVKVSCKASGYIFTNNYMHWVRQAPGQGLEWMGIISPSVGRTAYAQKFQGRVTMTRDTSTSTVYMELSSLRSEDTAVYYCARGGGSSPRLDYWGQGTLVTVSSASTKGPSVFPLAPSSKSTSGGTAALGCLVKDYFPEPVTVSWNSGALTSGVHTFPAVLQSSGLYSLSSVVTVPSSSLGTQTYICNVNHKPSNTKVDKKVEPKSCDKTHTCPPCPAPPVAGPSVFLFPPKPKDTLMISRTPEVTCVVVDVKHEDPEVKFNWYVDGVEVHNAKTKPREEQYNSTYRVVSVLTVLHQDWLNGKEYKCKVSNKALPAPIEKTISKAKGQPREPQVYTLPPSREQMTKNQVKLTCLVKGFYPSDIAVEWESNGQPENNYKTTPPVLDSDGSFFLYSKLTVDKSRWQQGNVFSCSVMHEALHNHYTQKSLSLSPGK
light: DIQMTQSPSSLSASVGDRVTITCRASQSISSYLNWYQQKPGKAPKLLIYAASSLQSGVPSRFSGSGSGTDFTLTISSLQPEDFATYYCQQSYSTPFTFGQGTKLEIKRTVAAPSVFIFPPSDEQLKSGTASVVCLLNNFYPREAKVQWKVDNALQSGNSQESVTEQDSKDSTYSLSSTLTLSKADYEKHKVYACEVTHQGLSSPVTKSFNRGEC
On to B7, for which the Kd with huB7H3 (V1C1) worked out at 21 nM; with huB7H3 (V2C2), 21 nM; in assay [1], 16 nM.

B8: XENP34339 (bispecific antibody)
heavy 1: B7 heavy 1
heavy 2: QVQLVQSGAEVKKPGASVKVSCKASGYIFTNNYMHWVRQAPGQGLEWMGIISPSVGRTAYAQKFQGRVTMTRDTSTSTVYMELSSLRSEDTAVYYCARGGGSSPRLDYWGQGTLVTVSSASTKGPSVFPLAPSSKSTSGGTAALGCLVKDYFPEPVTVSWNSGALTSGVHTFPAVLQSSGLYSLSSVVTVPSSSLGTQTYICNVNHKPSNTKVDKKVEPKSCGKPGSGKPGSQVQLVQSGAEVKKPGASVKVSCKASGYIFTNNYMHWVRQAPGQGLEWMGIISPSVGRTAYAQKFQGRVTMTRDTSTSTVYMELSSLRSEDTAVYYCARGGGSSPRLDYWGQGTLVTVSSASTKGPSVFPLAPSSKSTSGGTAALGCLVKDYFPEPVTVSWNSGALTSGVHTFPAVLQSSGLYSLSSVVTVPSSSLGTQTYICNVNHKPSNTKVDKKVEPKSCDKTHTCPPCPAPPVAGPSVFLFPPKPKDTLMISRTPEVTCVVVDVKHEDPEVKFNWYVDGVEVHNAKTKPREEQYNSTYRVVSVLTVLHQDWLNGKEYKCKVSNKALPAPIEKTISKAKGQPREPQVYTLPPSREQMTKNQVKLTCLVKGFYPSDIAVEWESNGQPENNYKTTPPVLDSDGSFFLYSKLTVDKSRWQQGNVFSCSVMHEALHNHYTQKSLSLSPGK
light: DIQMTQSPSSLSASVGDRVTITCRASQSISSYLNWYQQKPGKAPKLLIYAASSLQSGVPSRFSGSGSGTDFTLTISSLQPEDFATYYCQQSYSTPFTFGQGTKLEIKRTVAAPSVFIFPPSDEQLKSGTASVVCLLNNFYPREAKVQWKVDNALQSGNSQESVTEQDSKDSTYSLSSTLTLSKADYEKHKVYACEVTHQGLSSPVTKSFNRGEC
For the molecule B8, the equilibrium dissociation constant (Kd) with CD28-Fc-His protein [2] was found to be 96 nM; in the assay with CD28-Fc-His protein [3], 150 nM.

B9: XENP37810 (bispecific antibody)
heavy 1: B7 heavy 1 with M431L, N437S
heavy 2: B8 heavy 2 with N32H, V55A, R57S, A59D, N264H, V287A, R289S, A291D, M661L, N667S
light: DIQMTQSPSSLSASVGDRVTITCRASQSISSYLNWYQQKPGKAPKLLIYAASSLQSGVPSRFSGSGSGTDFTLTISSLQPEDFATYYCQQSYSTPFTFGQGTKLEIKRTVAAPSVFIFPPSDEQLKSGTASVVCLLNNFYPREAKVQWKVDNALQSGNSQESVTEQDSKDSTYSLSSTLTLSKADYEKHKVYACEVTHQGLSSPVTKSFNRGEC
In assay [6], B9 displayed a Kd of 200 nM.

B10: XENP37808 (bispecific antibody)
heavy 1: B7 heavy 1 with E53G, M431L, N437S
heavy 2: B8 heavy 2 with M661L, N667S
light: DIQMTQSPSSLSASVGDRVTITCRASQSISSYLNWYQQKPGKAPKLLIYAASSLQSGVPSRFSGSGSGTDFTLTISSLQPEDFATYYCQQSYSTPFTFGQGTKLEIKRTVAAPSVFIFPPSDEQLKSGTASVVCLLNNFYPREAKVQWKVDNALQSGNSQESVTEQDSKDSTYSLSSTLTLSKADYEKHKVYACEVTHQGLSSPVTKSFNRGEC
Consider B10, for which the values for the dissociation constant Kd in [6], in assay [7] and in assay [8] were 232 nM, 230 nM and 7.6 nM, respectively.
